Experiment: Electrophoretic mobility by capillary zone electrophoresis
Type: physicochemical
Details: for Electrophoretic Mobility / Electrophoretic Mobility (Average): 32° C.
Description: Since electrophoretic mobility (ie, the ability of a drug/agent to migrate in an electric field) is an important aspect of electrotransport drug delivery, the electrophoretic mobility of the drug/agent being delivered is predictive of suitability for transdermal electrotransport delivery. Electrophoretic mobility measurements were performed using a capillary zone electrophoresis instrument (model 2100 P/ACE instrument, Beckman Instruments, Inc., Palo Alto, Calif.). At acid pH values DB-WAX, DB-1, DB-17 (J&W Scientific, Folsom, Calif.) capillary columns were used either with 50 or 100 micron internal diameter column and CElect H75 (Supelco, Bellefonte, Pa.) capillary column with a 75 micron internal diameter. At alkaline pH values uncoated silica capillaries of length 57 cm with an internal diameter of 75 microns were used with an applied voltage of 20 kV. If any electroosmotic flow was present, it was detected using a neutral marker such as 0.01% benzyl alcohol (SIGMA, St. Louis, Mo.) or 1/500 mesityl oxide (Applied Biosystems, Foster City, Calif.). The optimum voltage was determined by doing an Ohm's Law test on each buffer and capillary system. The temperature of the capillary columns was set at 32° C. and a two second pressure injection was done. A UV detector was used to monitor peptide and markers at either 214 or 280 nm.
Voltage injection had to be used for the 27 cm length column. The voltage applied varied depending on the capillary length.
The following equation was used to determine electrophoretic mobility μ. [formula]
If the electroosmotic flow is detected, the following equation can be used.
μpeptide =μtotal -μneutral marker
The measurement procedures described above were conducted on an aqueous solution of the protein insulinotropin, with TWEEN® 20 (MW=1126 g/mol) as the surfactant, with the following modifications. The insulinotropin donor solution concentration was 0.12 mg/mL. One test was run in 10 mM sodium borate at pH 9.0 and another test in 10 mM sodium chloroacetate at pH 3.5.
Fractional changes (%δ) are defined as the difference between the reading at a given surfactant concentration (Ec) minus the reading at zero surfactant (E0), the quantity divided by the difference between the reading at saturated surfactant concentration (Es) minus the reading at zero surfactant (E0), i. e. %δ=(Ec -E0)/(Es-E0).
The measurement procedures described earlier were conducted in this example on an aqueous solution containing insulinotropin as the agent and dodecyl trimethyl ammonium chloride (DTAC) as the ionic surfactant with the following modifications. […]
The same measurement procedures were conducted using an aqueous solution of salmon calcitonin as the agent and the zwitterionic dodecyl sulfobetaine as the surfactant with the following modifications. The temperature was initially 32° C., the surfactant concentration was varied up to 30 mM, and the calcitonin concentration was 0.06 to 0.08 mM. Tables 7, 8, and 9 below provide the results obtained in terms of polypeptide ellipticity expressed as a function of zwitterionic surfactant concentration at pH 3.5 in 12 mM sodium chloroacetate (Table 7), 5.0 in 4 mM piperazine HCI (Table 8), and 6.5 in 15 mM sodium cacodylate (Table 9), respectively. Table 8, in addition, provides the results obtained on electrophoretic mobility and HIC retention time in a phenyl superose column at pH 5.0.

[1] = pH 3.5, 10 mM sodium chloroacetate, TWEEN 20 0
[2] = pH 3.5, 10 mM sodium chloroacetate, TWEEN 20 0.133 mM
[3] = pH 3.5, 10 mM sodium chloroacetate, TWEEN 20 0.266 mM
[4] = pH 3.5, 10 mM sodium chloroacetate, TWEEN 20 0.515 mM
[5] = pH 3.5, 10 mM sodium chloroacetate, TWEEN 20 1.00 mM
[6] = pH 3.5, 10 mM sodium chloroacetate, TWEEN 20 2.28 mM
[7] = pH 3.5, 10 mM sodium chloroacetate, TWEEN 20 4.44 mM
[8] = pH 9.0, 10 mM sodium borate, TWEEN 20 0
[9] = pH 9.0, 10 mM sodium borate, TWEEN 20 0.133 mM
[10] = pH 9.0, 10 mM sodium borate, TWEEN 20 0.266 mM
[11] = pH 9.0, 10 mM sodium borate, TWEEN 20 0.515 mM
[12] = pH 9.0, 10 mM sodium borate, TWEEN 20 1.00 mM
[13] = pH 9.0, 10 mM sodium borate, TWEEN 20 2.28 mM
[14] = pH 9.0, 10 mM sodium borate, TWEEN 20 4.44 mM
[15] = pH 9.0, 10 mM sodium borate, TWEEN 20 8.88 mM
[16] = pH 9.0, 10 mM sodium borate, TWEEN 20 13.3 mM
[17] = pH 9.0, 10 mM sodium borate, TWEEN 20 20.0 mg/mL
[18] = pH 9.0, 10 mM sodium borate, TWEEN 20 25.0 mg/mL

Substance: Salmon Calcitonin [reference compound]
- Electrophoretic Mobility (pH 5.0, 4 mM piperazine-HCl, dodecyl sulfobetaine 0, calcitonin 0.076 mM): 2.4 × 10^-4 cm^2 /V-sec
- Electrophoretic Mobility (pH 5.0, 4 mM piperazine-HCl, dodecyl sulfobetaine 0.83 mM, calcitonin 0.076 mM): 2.3 × 10^-4 cm^2 /V-sec
- Electrophoretic Mobility (pH 5.0, 4 mM piperazine-HCl, dodecyl sulfobetaine 1.64 mM, calcitonin 0.075 mM): 2.2 × 10^-4 cm^2 /V-sec
- Electrophoretic Mobility (pH 5.0, 4 mM piperazine-HCl, dodecyl sulfobetaine 3.23 mM, calcitonin 0.074 mM): 2.2 × 10^-4 cm^2 /V-sec
- Electrophoretic Mobility (pH 5.0, 4 mM piperazine-HCl, dodecyl sulfobetaine 6.25 mM, calcitonin 0.072 mM): 1.7 × 10^-4 cm^2 /V-sec
- Electrophoretic Mobility (pH 5.0, 4 mM piperazine-HCl, dodecyl sulfobetaine 7.69 mM, calcitonin 0.071 mM): 1.5 × 10^-4 cm^2 /V-sec
- Electrophoretic Mobility (pH 5.0, 4 mM piperazine-HCl, dodecyl sulfobetaine 9.77 mM, calcitonin 0.069 mM): 1.6 × 10^-4 cm^2 /V-sec
- Electrophoretic Mobility (pH 5.0, 4 mM piperazine-HCl, dodecyl sulfobetaine 12.4 mM, calcitonin 0.067 mM): 1.4 × 10^-4 cm^2 /V-sec
- Electrophoretic Mobility (pH 5.0, 4 mM piperazine-HCl, dodecyl sulfobetaine 18.4 mM, calcitonin 0.062 mM): 0.96 × 10^-4 cm^2 /V-sec
- Electrophoretic Mobility (pH 5.0, 4 mM piperazine-HCl, dodecyl sulfobetaine 26.4 mM, calcitonin 0.056 mM): 0.88 × 10^-4 cm^2 /V-sec

Substance: Insulinotropin: the protein insulinotropin
- Electrophoretic Mobility (Average) (pH 3.5, 10 mM sodium chloroacetate, DTAC 0): 1.80 cm^2 /V-s × 10^-4
- Electrophoretic Mobility (Average) (pH 3.5, 10 mM sodium chloroacetate, DTAC 0.83 mM): 1.82 cm^2 /V-s × 10^-4
- Electrophoretic Mobility (Average) (pH 3.5, 10 mM sodium chloroacetate, DTAC 1.64 mM): 1.81 cm^2 /V-s × 10^-4
- Electrophoretic Mobility (Average) (pH 3.5, 10 mM sodium chloroacetate, DTAC 20.0 mM): 3.46 cm^2 /V-s × 10^-4
- Electrophoretic Mobility (Average) (pH 3.5, 10 mM sodium chloroacetate, DTAC 25.0 mM): 3.33 cm^2 /V-s × 10^-4
- Electrophoretic Mobility [1]: -1.8 cm^2 /Vs ×10^-4
- Electrophoretic Mobility [2]: -1.72 cm^2 /Vs ×10^-4
- Electrophoretic Mobility [3]: -1.58 cm^2 /Vs ×10^-4
- Electrophoretic Mobility [4]: -1.32 cm^2 /Vs ×10^-4
- Electrophoretic Mobility [5]: -1.14 cm^2 /Vs ×10^-4
- Electrophoretic Mobility [6]: -1.08 cm^2 /Vs ×10^-4
- Electrophoretic Mobility [7]: -1.01 cm^2 /Vs ×10^-4
- Electrophoretic Mobility, fractional change (% δ) [1]: 0
- Electrophoretic Mobility, fractional change (% δ) [2]: 0.10
- Electrophoretic Mobility, fractional change (% δ) [3]: 0.28
- Electrophoretic Mobility, fractional change (% δ) [4]: 0.61
- Electrophoretic Mobility, fractional change (% δ) [5]: 0.84
- Electrophoretic Mobility, fractional change (% δ) [6]: 0.91
- Electrophoretic Mobility, fractional change (% δ) [7]: 1.00
- Electrophoretic Mobility [8]: -1.06 cm^2 Vs × 10^-4
- Electrophoretic Mobility [9]: -1.05 cm^2 Vs × 10^-4
- Electrophoretic Mobility [10]: -1.01 cm^2 Vs × 10^-4
- Electrophoretic Mobility [11]: -1.00 cm^2 Vs × 10^-4
- Electrophoretic Mobility [12]: -0.89 cm^2 Vs × 10^-4
- Electrophoretic Mobility [13]: -0.73 cm^2 Vs × 10^-4
- Electrophoretic Mobility [14]: -0.62 cm^2 Vs × 10^-4
- Electrophoretic Mobility [15]: -0.61 cm^2 Vs × 10^-4
- Electrophoretic Mobility [16]: -0.55 cm^2 Vs × 10^-4
- Electrophoretic Mobility [17]: -0.58 cm^2 Vs × 10^-4
- Electrophoretic Mobility [18]: -0.53 cm^2 Vs × 10^-4
- Electrophoretic Mobility, fractional change (% δ) [8]: 0
- Electrophoretic Mobility, fractional change (% δ) [9]: 0.02
- Electrophoretic Mobility, fractional change (% δ) [10]: 0.09
- Electrophoretic Mobility, fractional change (% δ) [11]: 0.11
- Electrophoretic Mobility, fractional change (% δ) [12]: 0.32
- Electrophoretic Mobility, fractional change (% δ) [13]: 0.62
- Electrophoretic Mobility, fractional change (% δ) [14]: 0.83
- Electrophoretic Mobility, fractional change (% δ) [15]: 0.85
- Electrophoretic Mobility, fractional change (% δ) [16]: 0.96
- Electrophoretic Mobility, fractional change (% δ) [17]: 0.91
- Electrophoretic Mobility, fractional change (% δ) [18]: 1.00

Source: patent US6328728A, “Composition and method for enhancing electrotransport agent delivery” (Alza Corporation, priority 1997, dated 2001)
